Test results taken from US20250011363A1, “OPTIMIZED SHORTENED PEPTIDE THAT BINDS TO ACETYLCHOLINE RECEPTOR, AND USE THEREOF” (SKINMED CO., LTD., priority 2021, published 2025).

What follows are binders tested against acetylcholine receptor (assay: SPR, AchR immobilised on chip, peptide 10 uM).

Binding affinity (RU) | Binder
22 | KNEMR [5mer-841]
24 | RENHK [5mer-1138]
122 | KRSIQR [6mer-1-208]
25 | RIDGK [5mer-830]
11 | KCKMK [5mer-826]
11 | KDTAR [5mer-840]
26 | RTCKR [5mer-1134]
25 | RMPAK [5mer-1145]
27 | RFCWR [5mer-828]
29 | RYPFK [5mer-1125]
16 | RDTGK [5mer-1147]
28 | RNEFK [5mer-1140]
18 | RMHER [5mer-832]
123 | KKQLLR [6mer-1-211]
148 | RRRICR [6mer-1-212]
33 | KAKNR [5mer-1144]
26 | KPTHK [5mer-1126]
19 | RATGK [5mer-1143]
151 | KKSQQR [6mer-1-207]

Binding affinity (RU) | Binder
24 | RAAGK [5mer-831]
32 | KTDPR [5mer-844]
26 | RHHDK [5mer-839]
13 | RHSMK [5mer-838]
26 | REWVR [5mer-1128]
25 | KNSAR [5mer-1136]
15 | RMNIK [5mer-834]
23 | KPHGR [5mer-1146]
23 | KCSMK [5mer-1133]
32 | RPDWR [5mer-846]
17 | RFMVR [5mer-1130]
33 | KATAK [5mer-833]
19 | KFSMK [5mer-1132]
28 | KHCWK [5mer-1139]
154 | RRQLTK [6mer-1-202]
26 | REEVR [5mer-1141]
14 | KCDGK [5mer-1131]
154 | KKRQRR [6mer-1-204]
24 | KTENK [5mer-1142]

Binding affinity (RU) | Binder
14 | KFDAR [5mer-1129]
18 | KKAGR [5mer-827]
28 | KAPEK [5mer-847]
142 | RRQITR [6mer-1-203]
17 | RHTAR [5mer-1135]
15 | RYEDR [5mer-845]
17 | KTTPK [5mer-843]
26 | KCWHR [5mer-829]
28 | RPMDR [5mer-837]
22 | KEEEK [5mer-1137]
15 | REWNR [5mer-836]
24 | RDWFR [5mer-1148]
20 | RHNVK [5mer-842]
121 | RKGYTR [6mer-1-209]
14 | RFMMR [5mer-835]
16 | RIADR [5mer-1127]
121 | RRLQTR [6mer-1-206]
12 | RYMVK [5mer-848]
133 | KRWRLR [6mer-1-205]
